What was measured:
[1] = target: CTLA4 on CTLA4-expressing CHO cells (human, UniProt P16410 36-223); experiment: FACS competition on CTLA4-expressing CHO cells; competitor 125 ng FITC-labeled murine anti-CTLA4; unlabeled antibody 2000 ng to 100 ng
Method: The starting concentration of the unlabeled competitor was 2000 ng and was diluted 2-fold serially to 100 ng.

human CTLA4-Ig [2] = target: T1, human CTLA4-Ig (human, UniProt P16410 38-161); experiment: calculated; method and form of CTLA4 not stated (Example 8, competition assays); humanized, IgG1 isotype
T1 construct: also called rhCTLA4IgG1Fc; not shown: immunoglobulin Fc part of the fusion; named IgG1Fc in rhCTLA4IgG1Fc and detected with anti-human Fc

human CTLA4-Ig [3] = target: T1, human CTLA4-Ig; experiment: competition ELISA on coated human CTLA4-Ig; reference murine CTLA4-26B
Method: (§1) Plates were coated with human CTLA4-Ig (10 ug/ml) overnight, washed the next day and blocked with Superblock (Pierce) for 15 min at room temperature. Plates were washed three times with 1×PBS/0.1% Tween 20 and three times with 1×PBS.
(§2) 100 ul of antibody mixtures was transferred to human CTLA4-Ig coated ELISA plate and rocked for 2 hours at room temperature. Plates were washed as described above and a secondary reagent (streptavidin peroxidase conjugate at 1:1000 dilution) in PBT buffer (1×PBS, 1% BSA, 0.1% Tween 20 was added. Plates were incubated for 1 hr at RT with shaking. Plates were washed as described above and developed for 10 minutes at room temperature with ABTS+H2O2 (100 ul/well) and the reaction was stopped with 2% oxalic acid (100 ul/well).

human CTLA4-Ig [4] = target: T1, human CTLA4-Ig; experiment: competition ELISA on plate-coated human CTLA4-Ig (10 ug/ml); cold competitor titrated against biotinylated murine CTLA4-26B; streptavidin-peroxidase, ABTS, O.D. 415 nm
Method: as §1, §2

human CTLA4-Ig [5] = target: T1, human CTLA4-Ig; experiment: calculated; method and form of CTLA4 not stated (Example 8, competition assays); humanized, IgG2m3 isotype
human CTLA4-Ig [6] = target: T1, human CTLA4-Ig; experiment: calculated; method and form of CTLA4 not stated (Example 8, competition assays); humanized, IgG4 isotype
human CTLA4-Ig [7] = target: T1, human CTLA4-Ig; experiment: inhibition ELISA on plate-coated human CTLA4-Ig (10 ug/ml); antibody titrated, then biotin-CD86-Ig at 0.66 ug/ml as the blocked ligand; neutravidin-AP, ABTS
Method: ELISA were performed as described above with modifications. […] After washing, saturating concentrations of neutravidin-AP were added, and incubated for 1 hr at RT. Unbound neutravidin-AP was washed using PBS/1% BSA. The assay was developed using ABTS.

E46 [8] = target: T2, E46; experiment: sandwich ELISA: antibody coated at 10 ug/ml, CHO supernatant with about 0.5 ug/ml CTLA4-Ig mutant, AP-goat anti-human Fc; blanks on the sheet: Mock 0.174, DME 0.183
T2 construct: one of 11 alanine mutants made by site-directed mutagenesis, used as CHO supernatant; also called CTLA4 point mutant E46; CTLA4-Ig E46A; not shown: human Ig Fc portion (with hinge or linker) of the CTLA4-Ig fusion

I65 = target: T3, I65; experiment: as above
T3 construct: one of 11 alanine mutants made by site-directed mutagenesis, used as CHO supernatant; also called CTLA4 point mutant I65; CTLA4-Ig I65A; not shown: the human Ig (Fc) part of the CTLA4-Ig fusion and its junction

D62 = target: T4, D62; experiment: as above
T4 construct: one of 11 alanine mutants made by site-directed mutagenesis, used as CHO supernatant; also called CTLA4 point mutant D62; CTLA4-Ig D62A; not shown: human Ig Fc portion (with hinge or linker) of the CTLA4-Ig fusion

L61 = target: T5, L61; experiment: as above
T5 construct: one of 11 alanine mutants made by site-directed mutagenesis, used as CHO supernatant; also called CTLA4 point mutant L61; CTLA4-Ig L61A; not shown: the human Ig (Fc) part of the CTLA4-Ig fusion and its junction

T45 = target: T6, T45; experiment: as above
T6 construct: one of 11 alanine mutants made by site-directed mutagenesis, used as CHO supernatant; also called CTLA4 point mutant T45; CTLA4-Ig T45A; not shown: the human Ig (Fc) part of the CTLA4-Ig fusion and its junction

T67 = target: T7, T67; experiment: as above
T7 construct: one of 11 alanine mutants made by site-directed mutagenesis, used as CHO supernatant; also called CTLA4 point mutant T67; CTLA4-Ig T67A; not shown: human Ig Fc portion (with hinge or linker) of the CTLA4-Ig fusion

R38 = target: T8, R38; experiment: as above
T8 construct: one of 11 alanine mutants made by site-directed mutagenesis, used as CHO supernatant; also called CTLA4 point mutant R38; CTLA4-Ig R38A; not shown: human Ig Fc portion (with hinge or linker) of the CTLA4-Ig fusion

D63 = target: T9, D63; experiment: as above
T9 construct: one of 11 alanine mutants made by site-directed mutagenesis, used as CHO supernatant; also called CTLA4 point mutant D63; CTLA4-Ig D63A; not shown: human Ig Fc portion (with hinge or linker) of the CTLA4-Ig fusion

R85 = target: T10, R85; experiment: as above
T10 construct: one of 11 alanine mutants made by site-directed mutagenesis, used as CHO supernatant; also called CTLA4 point mutant R85; CTLA4-Ig R85A; not shown: human Ig Fc portion (with hinge or linker) of the CTLA4-Ig fusion

Q82 = target: T11, Q82; experiment: as above
T11 construct: one of 11 alanine mutants made by site-directed mutagenesis, used as CHO supernatant; also called CTLA4 point mutant Q82; CTLA4-Ig Q82A; not shown: human Ig Fc portion (with hinge or linker) of the CTLA4-Ig fusion

S64 = target: T12, S64; experiment: as above
T12 construct: one of 11 alanine mutants made by site-directed mutagenesis, used as CHO supernatant; also called CTLA4 point mutant S64; CTLA4-Ig S64A; not shown: human Ig Fc portion (with hinge or linker) of the CTLA4-Ig fusion

human CTLA4-Ig [9] = target: T1, human CTLA4-Ig; experiment: ELISA on plate-coated human CTLA4-Ig (10 ug/ml); serial dilutions of antibody, AP-goat anti-mouse, ABTS, OD 405 nm
Method: ELISA plates were incubated with 10 ug/ml human CTLA4-Ig overnight. Plates were washed with PBS/1% BSA and incubated with serial dilutions of primary antibody for 2 hrs at room temperature (RT). After washing, saturating concentrations of AP-conjugated goat anti-mouse antibody were added, and incubated for 1 hr at RT. Unbound goat antibodies were washed using PBS/1% BSA. The assay was developed using ABTS.

E46 [10] = target: T2, E46; experiment: sandwich ELISA: antibody coated at 10 ug/ml, CHO supernatant with CTLA4-Ig mutant, AP-goat anti-human Fc
Method: Mutant proteins were transiently expressed on CHO cells and supernatants harvested at 48 hrs. Supernatants containing CTLA4 mutant molecules were quantitated and standardized by ELISA. […] After incubation for 2 hrs at RT, plates were washed and incubated for 1 hr with AP-conjugated goat anti-human Fc specific IgG. The assay was developed as described above.

human CTLA4-Ig [11] = target: T1, human CTLA4-Ig; experiment: calculated; method and form of CTLA4 not stated (Example 8, competition assays); murine antibody

T1 sequence (P16410 other isoform, or with tags, fused parts or gaps limits assumed): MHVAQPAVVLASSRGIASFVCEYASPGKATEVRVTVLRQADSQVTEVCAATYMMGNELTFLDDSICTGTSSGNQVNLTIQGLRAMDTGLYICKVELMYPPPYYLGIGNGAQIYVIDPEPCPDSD
Sequence of CTLA4 on CTLA4-expressing CHO cells (P16410 36-223 T147A limits assumed): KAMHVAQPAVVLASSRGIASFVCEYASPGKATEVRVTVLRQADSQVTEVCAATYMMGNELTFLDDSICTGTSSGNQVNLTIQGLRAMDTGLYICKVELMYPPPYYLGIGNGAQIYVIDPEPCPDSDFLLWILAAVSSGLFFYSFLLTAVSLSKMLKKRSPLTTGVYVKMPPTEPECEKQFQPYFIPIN

B1: humanized anti-CTLA4 antibody 26, IgG1 isotype (antibody, V domains shown)
VH: QVQLQESGPGLVKPSQTLSLTCTVSGFSLTSYGVYWVRQPPGKGLEWLGVIWAGGTTNYNSALMSRLTISKDTSKNQVSLKLSSVTAADTAVYYCARGPPHAMMKRGYAMDYWGQGTLVTVSS
VL: DIQMTQSPSSLSASVGDRVTITCSATSSITYMSWYQQKPGKAPKLLIYDTSNLASGVPSRFSGSGSGTDYTLTISSLQPEDFATYYCQQWSSYPLTFGGGTKVEIK
notes: Human IgG1 heavy constant region (pVgamma1 vector) and human kappa constant region (pVkappa vector); also called hCTLA4-26B IgG1; humanized anti-CTLA4 IgG1
With B1 as the binder, how does the “fold difference in binding affinity against the murine antibody” value [1] read?
The value was ≤ 3 fold.

What about the Kd (human CTLA4-Ig [2]) of the same binder?
Its Kd is ~2 nM.

And the “fold difference in affinity against the murine antibody” value (human CTLA4-Ig [3])?
The value was ≤ 10 fold.

What about the “IC50 (read off the curve)” value (human CTLA4-Ig [4]) of the same binder?
The value was ~3 µg/mL.

B2: humanized anti-CTLA4 antibody 26, IgG2m3 isotype (antibody, V domains shown)
VH: B1 VH
VL: B1 VL
notes: Human IgG2m3 (mutated IgG2) heavy constant region (pVgamma2m3 vector) and human kappa constant region; also called hCTLA4-26B IgG2m3; IgG2 m3 (2 mutated 3)
How did the Kd (human CTLA4-Ig [5]) turn out when B2 was run?
Its Kd is ~1.2 nM.

What about the “fold difference in affinity against the murine antibody” value (human CTLA4-Ig [3]) of the same binder?
Its value is ≤ 10 fold.

And the “IC50 (read off the curve)” value (human CTLA4-Ig [4])?
The value was ~3 µg/mL.

B3: humanized anti-CTLA4 antibody 26, IgG4 isotype (antibody, V domains shown)
VH: B1 VH
VL: B1 VL
notes: Human IgG4 heavy constant region (pVgamma4 vector) and human kappa constant region; also called hCTLA4-26B IgG4; PVkLC+PVg4HC
Which results are given for B3?
fold difference in affinity against the murine antibody (human CTLA4-Ig [3]): ≤ 10 fold; Kd (human CTLA4-Ig [6]): ~1.1 nM; IC50 (read off the curve) (human CTLA4-Ig [4]): ~3 µg/mL

B4: murine anti-human CTLA4 monoclonal antibody number 26 (antibody, V domains shown)
VH: QVQLKESGPGLVAPSQSLSITCTVSGFSLTSYGVYWVRQPPGKGLEWLGVIWAGGTTNYNSALMSRLSISKDNSKSQVFLKMSSLQTDDTAMYYCARGPPHAMMKRGYAMDYWGQGTSVIVSS
VL: QNVLTQSPAIMPASPGEKVTMTCSATSSITYMSWYQQKSGSSPRLLIYDTSNLASGVPVRFSGSGSGTSYSLTISRMEAEDAATYYCQQWSSYPLTFGAGTKLELK
notes: Mouse IgG1; also called antibody 26; antibody 26B
Which results are given for B4?
IC50 (read off the curve) (human CTLA4-Ig [7]): ~0.6 µg/mL; O.D. 450 nm (E46 [8]): 0.16; O.D. 450 nm (I65): 1.17; O.D. 450 nm (D62): 0.974; O.D. 450 nm (L61): 1.19; O.D. 450 nm (T45): 0.948; O.D. 450 nm (T67): 0.944; O.D. 450 nm (R38): 0.636; O.D. 450 nm (D63): 0.979; O.D. 450 nm (R85): 0.976; O.D. 450 nm (Q82): 1.07; O.D. 450 nm (S64): 1.1; EC50 (read off the curve) (human CTLA4-Ig [9]): ~0.05 µg/mL; IC50 (read off the curve) (human CTLA4-Ig [4]): ~3 µg/mL; binding result (E46 [10]): no binding; Kd (human CTLA4-Ig [11]): ~1.7 nM
